Results on 26 sequences are retold here after the supplement of paper PMC9170038.

In this data set the test system is MS2 coat protein. In words: apparent KD of MS2 coat protein; designed switch direction (-1 OFF switch, 1 ON switch): 1; higher = weaker reporter binding. In a few lines: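 SNAP-549-labelled MS2 coat protein was titrated, doubling from 0.7 or 1.5 nM to 3 µM, over designed RNA switches transcribed on Illumina chips by stalled E. coli RNA polymerase. Runs were done without input, with 200 uM small-molecule ligand, or with an oligonucleotide input. Apparent KD is the per-design median over clusters of curve-fitted normalised fluorescence.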

Where [1] appears, read: input ligand: microRNA oligo, concentration not stated.

For “GCUAGUAUAAUUGUCAACAUGAGGAUCACCCAUGUAUGUUGGCAGGAUAUCGUUUGCAAAGCAAACGAGAAGGGCUAAACUAGC [Mat - Same State NG 3 - JL Mod - D11] (Eterna round: R96, puzzle: Same State NG 3)”, the “apparent KD of MS2 coat protein” value came to 61.3 nM (input ligand: FMN 200 uM), 106 nM under setting [1] and 171 nM (input ligand: none).

With “GCUCGAAUCAGAACCAACAUGAGGAUCACCCAUGUAUGUUGGUAGGAUAUCGUUUCUAAGAGAAACGAGAAGGGCCGAACGAGC [SameState NG3 #5] (Eterna round: R96, puzzle: Same State NG 3)”, the “apparent KD of MS2 coat protein” value by setting is: (input ligand: FMN 200 uM) 224 nM; under setting [1], 132 nM; (input ligand: none) 212 nM.

On to “GCUCGAAUCAGAACCAACAUGAGGAUCACCCAUGUGUGUUGGUAGGAUAUCGUUUCUAAGGGAAACGAGAAGGGCCGAACGAGC [SameState NG3 #7] (Eterna round: R96, puzzle: Same State NG 3)”, for which the “apparent KD of MS2 coat protein” value (input ligand: FMN 200 uM) turned out to be 46.9 nM, the “apparent KD of MS2 coat protein” value under setting [1] was found to be 49.4 nM and the “apparent KD of MS2 coat protein” value (input ligand: none) came to 89.1 nM.

With “GCUCGACGUAUUGUUUACAUGAGGAUCACCCAUGUAGGUGCGGAGGAUAUCUACGUGUUUCAUGUAGAGAAGGUCGUGUCGAGC [SameState NG3 #91] (Eterna round: R96, puzzle: Same State NG 3)”, the “apparent KD of MS2 coat protein” value (input ligand: FMN 200 uM) was determined as 24.5 nM, the “apparent KD of MS2 coat protein” value under setting [1] was 59.2 nM and the “apparent KD of MS2 coat protein” value (input ligand: none) is 106 nM.

As for “GCUCGACUGAUGGCCUACAUGAGGAUCACCCAUGUGACUGGGCAGGAUAUCUAGAUGCAGGAUGUAGAGAAGGGCCUGUCGAGC [SameState NG3 #43] (Eterna round: R96, puzzle: Same State NG 3)”, the “apparent KD of MS2 coat protein” value runs as follows: (input ligand: FMN 200 uM) 589 nM; under setting [1], 201 nM; (input ligand: none) 426 nM.

In the case of “GCUCGAUGAAUGUCCUACAUGAGGAUCACCCAUGUACGUGGGCAGGAUAUUUACAUGCAGAGUGUAGAGAAGGGCCCAUCGAGC [SameState NG3 #62] (Eterna round: R96, puzzle: Same State NG 3)”, the “apparent KD of MS2 coat protein” value (input ligand: FMN 200 uM) turned out to be 16.1 nM, the “apparent KD of MS2 coat protein” value under setting [1] turned out to be 28.6 nM and the “apparent KD of MS2 coat protein” value (input ligand: none) was 49.1 nM.

As to “GCUCGAUGAGCGGUUUACAUGAGGAUCACCCAUGUAAAUGGGCAGGAUAUUUACGUGCUUUGUGUAGAGAAGGGCCCAUCGAGC [SameState NG3 #75] (Eterna round: R96, puzzle: Same State NG 3)”, the “apparent KD of MS2 coat protein” value is, setting by setting: (input ligand: FMN 200 uM) 18.1 nM; under setting [1], 47.4 nM; (input ligand: none) 112 nM.

In the case of “GCUCGAUGAGCUGUCUACAUGAGGAUCACCCAUGUAGAUGCGGAGGAUAUUUACGUGCUUUAUGUAGAGAAGGCCGUAUCGAGC [SameState NG3 #79] (Eterna round: R96, puzzle: Same State NG 3)”, the “apparent KD of MS2 coat protein” value reads like this: (input ligand: FMN 200 uM) 12 nM; under setting [1], 15.6 nM; (input ligand: none) 17.9 nM.

Consider “GCUCGAUGAGCUGUCUACAUGAGGAUCACCCAUGUAGAUGGGCAGGAUAUUUACGUGCUUUGUGUAGAGAAGGGCCCAUCGAGC [SameState NG3 #77] (Eterna round: R96, puzzle: Same State NG 3)”, for which the “apparent KD of MS2 coat protein” value by setting is: (input ligand: FMN 200 uM) 35 nM; under setting [1], 144 nM; (input ligand: none) 267 nM.

With “GCUCGAUGAGCUGUUUACAUGAGGAUCACCCAUGUAGAUGCGGAGGAUAUCUACGUGCUUUAUGUAGAGAAGGCCGUAUCGAGC [SameState NG3 #81] (Eterna round: R96, puzzle: Same State NG 3)”, the “apparent KD of MS2 coat protein” value reads like this: (input ligand: FMN 200 uM) 14.2 nM; under setting [1], 22.2 nM; (input ligand: none) 28.4 nM.

On to “GCUCGAUGUGCUGUCUACAUGAGGAUCACCCAUGUAGAUGCGGAGGAUAUCUACGUGCUUUAUGUAGAGAAGGUCGUAUCGAGC [SameState NG3 #84] (Eterna round: R96, puzzle: Same State NG 3)”, for which the “apparent KD of MS2 coat protein” value was 52.5 nM (input ligand: FMN 200 uM), 50.2 nM under setting [1] and 90.4 nM (input ligand: none).

“GCUCGAUGUGUUGUCUACAUGAGGAUCACCCAUGUAGAUGCGGAGGAUAUCUACGUGCUUUAUGUAGAGAAGGUCGUAUCGAGC [SameState NG3 #85] (Eterna round: R96, puzzle: Same State NG 3)”: the “apparent KD of MS2 coat protein” value (input ligand: FMN 200 uM) is 18 nM, the “apparent KD of MS2 coat protein” value under setting [1] worked out at 23.7 nM and the “apparent KD of MS2 coat protein” value (input ligand: none) stood at 34.3 nM.

As to “GCUCGCACGAUGACCCACAUGAGGAUCACCCAUGUGUGUGGGUAGGAUAUCUAUAUUAAGGAUUUAGAGAAGGGCCGAGCGAGC [SameState NG3 #22] (Eterna round: R96, puzzle: Same State NG 3)”, the “apparent KD of MS2 coat protein” value by setting is: (input ligand: FMN 200 uM) 450 nM; under setting [1], 419 nM; (input ligand: none) 578 nM.

Take “GCUCGCGACGCAGGAUAUGGGUGCCUGUACAUGAGGAUCACCCAUGUUAAGGGACGGAAAACGAACCAGAAGGGCGUCACGAGC [Ceusdian] (Eterna round: R96, puzzle: Same State NG 2)”: the “apparent KD of MS2 coat protein” value runs as follows: (input ligand: FMN 200 uM) 68.1 nM; under setting [1], 132 nM; (input ligand: none) 1120 nM.

For “GCUCGCGGCACAGGAUAUGGGUGCCUGUACAUGAGGAUCACCCAUGUUAAGGGACGGAUUACGAACCAGAAGGGUGUGGCAAGC [Reonisma] (Eterna round: R96, puzzle: Same State NG 2)”, the “apparent KD of MS2 coat protein” value runs as follows: (input ligand: FMN 200 uM) 95.5 nM; under setting [1], 294 nM; (input ligand: none) 1060 nM.

Regarding “GCUCGGAUGAUGGCCCACAUGAGGAUCACCCAUGUGCGUGGGCAGGAUAUCUAGAUUAAGGAUGUAGAGAAGGGCCUACCGAGC [SameState NG3 #33] (Eterna round: R96, puzzle: Same State NG 3)”, the “apparent KD of MS2 coat protein” value is, setting by setting: (input ligand: FMN 200 uM) 543 nM; under setting [1], 140 nM; (input ligand: none) 179 nM.

Take “GCUCGGCUGAUGGCCCACAUGAGGAUCACCCAUGUGAGUGGGCAGGAUAUCUAGAUUAAGGAUGUAGAGAAGGGCCUGCCGAGC [SameState NG3 #36] (Eterna round: R96, puzzle: Same State NG 3)”: the “apparent KD of MS2 coat protein” value was found to be 2290 nM (input ligand: FMN 200 uM), 19 nM under setting [1] and 559 nM (input ligand: none).

Consider “GCUCGUAUGAUGACCGACAUGAGGAUCACCCAUGUGUGUUGGUAGGAUAUCUAUAUUAAGGAUAUAGAGAAGGGCCGAACGAGC [SameState NG3 #16] (Eterna round: R96, puzzle: Same State NG 3)”, for which the “apparent KD of MS2 coat protein” value stood at 22.4 nM (input ligand: FMN 200 uM), 23.6 nM under setting [1] and 30.6 nM (input ligand: none).

For “GCUCGUGGUAUUGUCUACAUGAGGAUCACCCAUGUAGGUGCGGAGGAUAUCUACGUGUCUCAUGUAGAGAAGGUCGUCACGAGC [SameState NG3 #99] (Eterna round: R96, puzzle: Same State NG 3)”, the “apparent KD of MS2 coat protein” value is, setting by setting: (input ligand: FMN 200 uM) 61.2 nM; under setting [1], 174 nM; (input ligand: none) 38.7 nM.

Turning to “GCUGCAAGGGCAGGAUAUGGGUCCAAAGCGCAAGUGCGCUUUGGUACAUGAGGAUCACCCAUGUCCCAGAAGGGCCCAAACAGC [Bientierqu] (Eterna round: R96, puzzle: Same State NG 2)”, the “apparent KD of MS2 coat protein” value is 15.5 nM (input ligand: FMN 200 uM), 87.2 nM under setting [1] and 121 nM (input ligand: none).

For “GCUGCAAGGGCAGGAUAUGGGUCCAAAGCGCAAGUGCGCUUUGGUACAUGAGGAUCACCCAUGUCCCAGAAGGGCCCAUGCGGC [Edenbiatar] (Eterna round: R96, puzzle: Same State NG 2)”, the “apparent KD of MS2 coat protein” value (input ligand: FMN 200 uM) came to 15.5 nM, the “apparent KD of MS2 coat protein” value under setting [1] is 78.4 nM and the “apparent KD of MS2 coat protein” value (input ligand: none) amounted to 123 nM.

As to “GCUGCAAUAAACGCCUACAUGAGGAUCACCCAUGUAUGUAGGCAGGAUAUCGUUUGCAAAGCAAACGAGAAGGGCCGUAGUAGC [Mat - Same State NG 3 - JL Mod - D35] (Eterna round: R96, puzzle: Same State NG 3)”, the “apparent KD of MS2 coat protein” value came to 26.3 nM (input ligand: FMN 200 uM), 44.6 nM under setting [1] and 66.1 nM (input ligand: none).

Take “GGAAACAGAGGAGGAUAUGCAGAGGAUCACCCUGUAGAAGGCCUCGAAAGGAGGAUAUGCAGAGGAUCACCCUGUAGAAGGCCU [pwkr ssNG DX.26] (Eterna round: R96, puzzle: Same State NG 1)”: the “apparent KD of MS2 coat protein” value (input ligand: FMN 200 uM) turned out to be 72.1 nM, the “apparent KD of MS2 coat protein” value under setting [1] is 156 nM and the “apparent KD of MS2 coat protein” value (input ligand: none) was 208 nM.

As to “GGAAAGAGGUAAGGAUAUGCAUGGCGGAGACAUGAGGAUCACCCAUGUUGGAGACGAAAUCUAGGGUAGAAGGUACAAGGAAGG [AK SSNG2-V2-11] (Eterna round: R96, puzzle: Same State NG 2)”, the “apparent KD of MS2 coat protein” value is, setting by setting: (input ligand: FMN 200 uM) 133 nM; under setting [1], 44.6 nM; (input ligand: none) 128 nM.

With “GGAAAGAGGUAAGGAUAUGCAUGGCUGGGACAUGAGGAUCACCCAUGUUAUAGAAGAAAUCUAGGGUAGAAGGUACAAGGAAGG [AK SSNG2-V2-9.1] (Eterna round: R96, puzzle: Same State NG 2)”, the “apparent KD of MS2 coat protein” value was determined as 464 nM (input ligand: FMN 200 uM), 199 nM under setting [1] and 455 nM (input ligand: none).

As for “GGAAAGAGGUCAGGAUAUGAAUGUUUGGGACAUGAGGAUCACCCAUGUAAUAGAAGAAAUCUACAUUAGAAGGGACAAGGAAGG [AK SSNG2-V2-6] (Eterna round: R96, puzzle: Same State NG 2)”, the “apparent KD of MS2 coat protein” value amounted to 63.5 nM (input ligand: FMN 200 uM), 54.5 nM under setting [1] and 79.3 nM (input ligand: none).
